Substrate in data set [1]: NC(CCCC(N)C(=O)O)C(=O)O
Kind of data set: initial rates, Lys production by amino acid analyzer; nonlinear Michaelis-Menten fit. Type of data set: biochemical, Thalassospira sp. A40-3. The note with it: 0 to 12 mM DAP, 200 mM Tris-HCl pH 8.0, PLP (100 mM [sic]), 25°C, DAP stereoisomer not given. The text has this:
initial rates, Lys production by amino acid analyzer; nonlinear Michaelis-Menten fit on LysA (DAP decarboxylase) from strain A40-3

Substrate in data set [2]: NC(CCCC(N)C(=O)O)C(=O)O
Described as above. Type of data set: biochemical, Halomonas sp. A40-4. The note with it: 0 to 12 mM DAP, 200 mM Tris-HCl pH 8.0, PLP (100 mM [sic]), 25°C, DAP stereoisomer not given. The text has this: initial rates, Lys production by amino acid analyzer; nonlinear Michaelis-Menten fit on LysA (DAP decarboxylase) from strain A40-4

B1: LysA (DAP decarboxylase) from strain A40-3 (Thalassospira sp. A40-3) (protein)
chain: MNHFEYINSELYAEGVSIREMADKVGTPFFCYSTATLERHYKVYADAFDGLDATVCFAVKANSNQAVLKTLANLGAGADVVSVGEMRRALRAGMPPAKIIFSGVGKADAEMREALDADIAQINVESIPELVELNRVAIDMGKKARIALRVNPHVDAKTHEKIATGKAENKFGIDWTRAIEVYREAAAMDGIEVTGIAMHIGSQLTDLAPFREAFTRLAGLVEQLRSEGIDIRNLDLGGGLGIAYQGETPPLPDAYGQMVRETVGHLGCHITLEPGRLIAGNAGIMVSRVMYIKDGEAKRFVILDAAMNDLIRPTLYGAYHEIIPVDEQTDGDKQVKVDVVGPVCETGDTFGKDRDLPDDLKAGDLVAVMSAGAYGAVMSSTYNTRALTPEVLVKGNNFAIVRPRQEIDDLINMDLVPSWLSNA
notes: full length 423 residues
A word on the Km: it is the concentration of substrate that gives half-maximal velocity. In general, Vmax refers to the rate approached at saturating substrate. By kcat is commonly meant the maximal rate divided by the concentration of active sites. With B1, in data set [1], the Michaelis-Menten constant (Km) worked out at 1890 ± 340 µM, the Vmax came to 37.7 µmol/min/mg and the catalytic constant (kcat) stood at 26.9 ± 2.42 s⁻¹.

B2: LysA (DAP decarboxylase) from strain A40-4 (Halomonas sp. A40-4) (protein)
chain: MDHFNDRDGLLFAEDVPLDRIAETYGTPCYVYSKATLTRHFRAYTEALGGHPHLICYAVKANSNLAVLGLLAKLGAGFDIVSVGELERVLKAGGDPDKVVFSGVAKQPHEMARALEVGIKCFNVESRPELERLNAVAGELGKMAPVSLRVNPDVDAGTHPYISTGLKDNKFGIPVDDALTVYELAASLPNLQVKGLDCHIGSQLTETAPFLDALERLLVLMERLRERGIEIDHLDLGGGLGVPYRDETPPHPFDYASQLLSRLSRWEGGEQLTLLFEPGRSIAANAGIMLTRVEFLKPGETKNFAIVDAAMNDLIRPALYQAWQAIVPVDTRSARETSIYDVVGPVCETGDFLGQERELAIAAGDLLAVRSAGAYGFVMASNYNSRPRPAEVMVDGERCHLVRARETLESLWSGEALLPEGGC
notes: lysA complementation fragment 1,272 bp
As to B2, in data set [2], the Km came out at 720 ± 140 µM, the Vmax is 58.3 µmol/min/mg and the catalytic constant (kcat) turned out to be 41.6 ± 0.88 s⁻¹.

(Values after PMC9602339, “Diaminopimelic Acid Metabolism by Pseudomonadota in the Ocean” (Microbiology Spectrum, 2022).)
